PMC8652540

Target: SARS-CoV-2 nucleocapsid protein (NCAP, N protein) (SARS-CoV-2, UniProt P0DTC9 1-419)
Assay: EMSA
Settings: protein: recombinant; tags: N-terminal GFP and His (N-GFP-NCAP-His, pET-28a(+)-TEV) as purified; EMSA text says only recombinant NCAP; chain copies: 2; single strand (legend says 24 bp)

Q: Does UGCUUACGGUUUCGUCCGUGUUGC (ssRNA) [5'UTR leader RNA probe] bind?
A: Result: binds
